In US20250163127A1:
Substitutions are numbered along the chain they refer to. Numbers in names are those of the source.

B1: ICOSL ECD-Fc N84Q/N119Q/N207Q (Fc fusion)
chain: DTQEKEVRAMVGSDVELSCACPEGSRFDLNDVYVYWQTSESKTVVTYHIPQNSSLENVDSRYRNRALMSPAGMLRGDFSLRLFQVTPQDEQKFHCLVLSQSLGFQEVLSVEVTLHVAAQFSVPVVSAPHSPSQDELTFTCTSINGYPRPNVYWINKTDNSLLDQALQNDTVFLNMRGLYDVVSVLRIARTPSVNIGCCIENVLLQQQLTVGSQTGNDIGERDKITENPVSTGEKNAAT
B2: ICOSL ECD-Fc N52Q/N84Q/N119Q/N168Q (Fc fusion)
chain: B1 chain with N52Q, N168Q, Q207N
B3: ICOSL-Fc N52A/N57F/Q100S (Fc fusion)
chain: B1 chain with N52A, N57F, Q84N, Q100S, Q119N, Q207N
B4: ICOSL-Fc N52A/N57H/Q100S (Fc fusion)
chain: B1 chain with N52A, N57H, Q84N, Q100S, Q119N, Q207N
B5: ICOSL-Fc N52A/N57Y/Q100A (Fc fusion)
chain: B1 chain with N52A, N57Y, Q84N, Q100A, Q119N, Q207N
B6: ICOSL-Fc N52M/N57H/Q100S (Fc fusion)
chain: B1 chain with N52M, N57H, Q84N, Q100S, Q119N, Q207N
B7: ICOSL-Fc N52M/N57W/Q100P (Fc fusion)
chain: B1 chain with N52M, N57W, Q84N, Q100P, Q119N, Q207N
B8: variant PD-L2 IgV F2L/H15Q/D46E/T47A/Q72H/R76G/Q82R/V89D Fc fusion (Fc fusion)
chain: LLTVTVPKELYIIEQGSNVTLECNFDTGSHVNLGAITASLQKVENEASPHRERATLLEEQLPLGKASFHIPHVQVGDEGQYRCIIIYGDAWDYKYLTLKVKA
B9: variant PD-L2 IgV I13V/H15Q/L33F/T47A/Q82R/V89D Fc fusion (Fc fusion)
chain: B8 chain with L2F, I13V, L33F, E46D, H72Q, G76R
B10: variant PD-L2 IgV I13V/H15Q/T47A/E58G/S67L/Q82R/V89D Fc fusion (Fc fusion)
chain: B8 chain with L2F, I13V, E46D, E58G, S67L, H72Q, G76R
B11: variant PD-L2 IgV I13V/H15Q/E44V/T47A/Q82R/V89D Fc fusion (Fc fusion)
chain: B8 chain with L2F, I13V, E44V, E46D, H72Q, G76R
B12: variant PD-L2 IgV H15Q/N18D/T47A/Q72H/V73A/R76G/I86T/V89D Fc fusion (Fc fusion)
chain: B8 chain with L2F, N18D, E46D, V73A, R82Q, I86T
B13: variant PD-L2 IgV H15Q/L33H/S67L/R76G/Q82R/V89D Fc fusion (Fc fusion)
chain: B8 chain with L2F, L33H, E46D, A47T, S67L, H72Q
B14: variant PD-L2 IgV I13V/H15Q/T47A/Q72H/R76G/I86T Fc fusion (Fc fusion)
chain: B8 chain with L2F, I13V, E46D, R82Q, I86T, D89V
B15: variant PD-L2 IgV H15Q/S39I/E44D/Q72H/V75G/R76G/Q82R/V89D Fc fusion (Fc fusion)
chain: B8 chain with L2F, S39I, E44D, E46D, A47T, V75G
B16: variant PD-L2 IgV H15Q/T47A/S67L/R76G/Q82R/V89D Fc fusion (Fc fusion)
chain: B8 chain with L2F, E46D, S67L, H72Q
B17: variant PD-L2 IgV I13V/H15Q/T47A/S67L/Q72H/R76G/Q82R/V89D Fc fusion (Fc fusion)
chain: B8 chain with L2F, I13V, E46D, S67L

Columns and labels:
[1] = substrate: ICOS (Homo sapiens (Human)) (UniProt Q9Y6W8); test: flow cytometry, transfected cells
Sequence of ICOS (Homo sapiens (Human)) (Q9Y6W8 21-199 limits assumed): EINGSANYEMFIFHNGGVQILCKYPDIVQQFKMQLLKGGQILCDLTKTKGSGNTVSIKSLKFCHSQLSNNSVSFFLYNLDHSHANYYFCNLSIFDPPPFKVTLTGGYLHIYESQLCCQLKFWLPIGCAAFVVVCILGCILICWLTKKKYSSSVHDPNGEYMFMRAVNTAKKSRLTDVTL

[2] = target: CTLA-4 (Homo sapiens (Human)) (UniProt P16410); test: flow cytometry, transfected cells
Sequence of CTLA-4 (Homo sapiens (Human)) (P16410 36-223): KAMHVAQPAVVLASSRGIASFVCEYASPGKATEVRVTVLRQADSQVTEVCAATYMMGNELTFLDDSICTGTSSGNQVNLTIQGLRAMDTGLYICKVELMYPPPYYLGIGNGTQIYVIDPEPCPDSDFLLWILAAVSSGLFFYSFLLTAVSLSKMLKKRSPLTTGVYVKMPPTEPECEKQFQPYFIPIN

CD28 (human) = CD28 (human) (UniProt P10747); test: flow cytometry, transfected cells
human PD-1 (human) = human PD-1 (human) (UniProt Q15116)
Sequence of human PD-1 (human) (Q15116 25-288): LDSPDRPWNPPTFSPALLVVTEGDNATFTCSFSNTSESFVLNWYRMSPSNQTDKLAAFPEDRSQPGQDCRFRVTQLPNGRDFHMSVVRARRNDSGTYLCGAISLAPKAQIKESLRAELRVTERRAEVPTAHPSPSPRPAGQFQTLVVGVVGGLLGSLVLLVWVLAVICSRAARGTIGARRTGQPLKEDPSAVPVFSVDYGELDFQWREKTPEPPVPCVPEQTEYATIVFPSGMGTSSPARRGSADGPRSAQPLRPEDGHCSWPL

Binder | MFI [1] | MFI [2] | MFI (CD28 (human)) | IFN gamma levels pg/mL (MLR) (human PD-1 (human)) | other results
B1 | 21400 MFI | 640 MFI | 569 MFI |  | MFI parental ratio [1]: 0.58 fold; MFI parental ratio [2]: 0.17 fold; MFI parental ratio (CD28 (human)): 0.38 fold
B2 |  | 3300 MFI |  |  | 
B3 | 242000 MFI | 255000 MFI | 157000 MFI |  | MFI ratio to WT (ΔWT) [1]: 1.14 fold; MFI ratio to WT (ΔWT) [2]: 0.77 fold; MFI ratio to WT (ΔWT) (CD28 (human)): 7 fold
B4 | 305000 MFI | 321000 MFI | 159000 MFI |  | MFI ratio to WT (ΔWT) [1]: 1.44 fold; MFI ratio to WT (ΔWT) [2]: 0.97 fold; MFI ratio to WT (ΔWT) (CD28 (human)): 7.1 fold
B5 | 261000 MFI | 320000 MFI | 147000 MFI |  | MFI ratio to WT (ΔWT) [1]: 1.23 fold; MFI ratio to WT (ΔWT) [2]: 0.97 fold; MFI ratio to WT (ΔWT) (CD28 (human)): 6.6 fold
B6 | 266000 MFI | 463000 MFI | 115000 MFI |  | MFI ratio to WT (ΔWT) [1]: 1.25 fold; MFI ratio to WT (ΔWT) [2]: 1.4 fold; MFI ratio to WT (ΔWT) (CD28 (human)): 5.1 fold
B7 | 322000 MFI | 343000 MFI | 168000 MFI |  | MFI ratio to WT (ΔWT) [1]: 1.52 fold; MFI ratio to WT (ΔWT) [2]: 1.04 fold; MFI ratio to WT (ΔWT) (CD28 (human)): 7.5 fold
B8 |  |  |  | 1170 pg/mL | 
B9 |  |  |  | 1470 pg/mL | 
B10 |  |  |  | 836 pg/mL | 
B11 |  |  |  | 1270 pg/mL | 
B12 |  |  |  | 1070 pg/mL | 
B13 |  |  |  | 1500 pg/mL | 
B14 |  |  |  | 1090 pg/mL | 
B15 |  |  |  | 941 pg/mL | 
B16 |  |  |  | 1100 pg/mL | 
B17 |  |  |  | 1560 pg/mL | 
